From US12551573B2, “Compositions and methods for the targeting of PCSK9” (Scribe Therapeutics Inc., priority 2022, dated 2026)
Where two headings read alike, the source gives them in different places.

Tested on: HBEGF locus
Type: cell-based, human
Details: high-throughput screen of dXR repression of the HBEGF gene
[1] = abundance of each domain in the library before vs after diphtheria toxin selection, listed domains met p-value <0.01 and log2(fold change) >2
[2] = change in abundance of each domain in the library before and after diphtheria toxin selection

Row | Molecule | Log2 (fold change) [1] | Log2 (fold change) [2]
1 | DOMAIN_22586 (protein, Nomascus leucogenys) FQASVSFQDVTVEFSQEEWQHLGPVERTLYRDVMLENYSHLVSVGYCFTKPELIFTLEQGEDPWLLEKEKGFLSRNSPEDS | 2.1811 | 
2 | DOMAIN_22778 (protein, listed as Saimiri boliviensis) SQGSVSFKDVTVDFTQEEWQQLDPAQKALYRDVMLENYCHFIAVGFHMTKPDMIRKLEQGEELWTQRIFPSYSYLEEDGKT | 3.1251 | 
3 | DOMAIN_22917 (protein, listed as Cervus elaphus) MAFEDVAVHFSQEEWGLLDTAQRSLYRRVMLENFALLASLGLSVSRPHVVTQLERGEEPWVLSGVDVTLPRDAQRRPHRGS | 3.8061 | 
4 | DOMAIN_22919 (protein, listed as Colobus angolensis) KPGTVSFADVAVYFSREEWGYLRPAQRALYRDVMRETYCHLGALGVGGSKPALISWVEEEAELWDPAARDPEVTKGLTETD | 2.8609 | 
5 | DOMAIN_23018 (protein, listed as Colobus angolensis) AQMLVTFKDVAVTFTQEEWRQLDLTQRTLYREVMLETCGLLVSLGHRVPKPELVHLLEHGQELWTVKTGLSQPTCAGDRTQ | 3.4177 | 
6 | DOMAIN_23093 (protein, listed as Propithecus coquereli) ESLTLEDVAVEFTWEEWQLLGPAQKDLYWDVMLENYNHLVSLGYQASKPDALSKLAQGEEPCVIEGKIQNRNCPGIRKADS | 3.2165 | 
7 | DOMAIN_23113 (protein, listed as Camelus ferus) GSVCEVSVSFEDVTVDFSREEWQHLDPAQRRLYWDVTLENYSHLCSVGYQVPKPEVIFKLEQGEGPWTLEEETPHQSCSGA | 3.4612 | 
8 | DOMAIN_23281 (protein, listed as Colobus angolensis) CWGLLSFKDISMEFTWDEWQLLDSTQKYLYRDVILENYHNLISVGYHGTKPDLIFKLEQGEDPWIINAKISRQSRPDGWEE | 2.5048 | 
9 | DOMAIN_23331 (protein, listed as Carlito syrichta) LQELLSFEDLSVDFTQKEWQLLNPYQKNLYKDVMLENYSSLVSLGYEVIKPDVIFKLEQGEEPWIRDAEMPSSPSLEVWQV | 2.8995 | 
10 | DOMAIN_23454 (protein, listed as Carlito syrichta) GKALLSFEDVAMYFTREEWNHLDWAQKDLYRDVMLENYMNMVLLGFQFPKPEVICQLENWDEPWILDLPRAGNRKASSSAC | 3.0632 | 
11 | DOMAIN_731 (protein, listed as Pan paniscus) MAGEAEAQLDPSLQGLVMFEDVTVYFSREEWGLLNVTQKGLYRDVMLENFALVSSLGLAPSRSPVFTQLEDDEQSWVPSWV |  | 2.1318
12 | DOMAIN_23679 (protein, listed as Tupaia chinensis) MAFEDVAVYFSREEWELLDTAQRALYRHVMLENFALVASLGFSPSRPCVVIQLESGKEPWLHSGMDTTMSRHAHKRPSSGS | 3.7951 | 
13 | DOMAIN_749 (protein, listed as Pan paniscus) MGPQGARRQAFLAFGDVTVDFTQKEWRLLSPAQRALYREVTLENYSHLVSLGILHSKPELIRRLEQGEAPWGEERRRRPGP |  | 3.1162
14 | DOMAIN_23856 (protein, listed as Erinaceus europaeus) SLGMVSFDDVMVTFSLEEWQLLSTSQRTLYRTVMLDTYSSLAALGHCAVKPGVIIKLEQGAEPWMGAQAPPRSLSDPCGPS | 3.1072 | 
15 | DOMAIN_24204 (protein, listed as Propithecus coquereli) SLGSVSFKDVTVDFSREEWQQLDLAQKSLYRDVTLENYFNLISVGCQVPKPEVIFNLEQGGELCVLDGGLSCQNCSDGDIG | 3.0779 | 
16 | DOMAIN_24446 (protein, listed as Propithecus coquereli) SQGLVSFKDVAVDFTQDEWQQLDPAQRTLYRDVMLENYSHLVSMGYPVSKPDVISKLEQGEDPWIIKRDISNWIYPDENQA | 3.6312 | 
17 | DOMAIN_24615 (protein, listed as Colobus angolensis) TEGLVMFEDVAVYFSREEWGLLNVTQKGLYQDVMLENFALVSSLGLAPLRSPVFSQLENDEQLWVPSWVDETPVSRAEARR | 2.4075 | 
18 | DOMAIN_24838 (protein, Pteropus alecto) FQASVSFKDVTVELTQEEWQQMGPLQRTLYRDVMLENYNNLVSVGSCIYKPELIFKLEQGEEPWLLEEEFSNQSYQVLEHY | 2.3323 | 
19 | DOMAIN_24903 (protein, listed as Ailuropoda melanoleuca) EMEPHSHAVPCQPSMSFKDVAVTFTQEEWGQLNLAQRRLYRNVTLETWSHLVSLGLLLSKPDVISWLEQGQDPWRAEQGPP | 3.0377 | 

Row | Molecule | Log2 (fold change) [1] | Log2 (fold change) [2]
20 | DOMAIN_25235 (protein, listed as Oryctolagus cuniculus) LPGLMAFEDVAVYFSQEEWGLLDAVQRALYRHVMLENFALVASLGLSASPPHVVIQLQRGEEPWVPSGLDMTSARNGHRRP | 3.6965 | 
21 | DOMAIN_25565 (protein, listed as Muntiacus reevesi) LPLTFEDVAVYFSEQEWQNLEAWQKELYKQVMRANYEILLSLDNGLPKPELISWIEQGKELFKKWGESQQSRSIICSSADL | 2.6133 | 
22 | DOMAIN_25654 (protein, Pteropus alecto) LWLPLTFEDIAIYFSEQEWQNLEAWQKDLYRNVMRANYEILVSLDDGLPKPELISHIEQGKELFWNLGETQKSGNIICSSA | 2.2996 | 
23 | DOMAIN_25671 (protein, listed as Muntiacus reevesi) GLLSFEDVALYFTREEWDTLDWAQKALYRDVMLDNYRHIVSLGFPFPKPEVICQLEQWEEPWTLDLPRAGTRKASGSACPD | 3.5244 | 
24 | DOMAIN_25682 (protein, listed as Rhinopithecus bieti) PRLPLTFEDVAIYFSEQEWQDLEAWQKELYKHVMRSNYETLVSLDDGLPKPELISWIEHGGEPFRNWRESQKSRNIICSSS | 2.5621 | 
25 | DOMAIN_25686 (protein, listed as Panthera pardus) PRVSLTFEDVAVLFTRDEWRKLGPSERNLYQDVMLENYSNLVSLGLLFSKPKVISLLQQGEDPWKVEKESPGGPSLGYKSS | 2.8635 | 
26 | DOMAIN_938 (protein, listed as Pan paniscus) MPANEDAPQPGEHGSACEVSVSFEDVTVDFSREEWQQLDSTQRRLYQDVMLENYSHLLSVGFEVPKPEVIFKLEQGEGPWT |  | 2.2926
27 | DOMAIN_25973 (protein, listed as Geotrypetes seraphini) ARAPVSFEEVAVYFSPEEWQTLQGWQKEMYRGVMRENYEIMLSLGYQFSKPEILLMMERGEEPCVEDCQRRIPVTFREKHL | 2.7804 | 
28 | DOMAIN_25996 (protein, listed as Geotrypetes seraphini) QMPVKFEDIAVSFSQEEWEYLNEEQKELYREVMEENYQTLISLGTGSPPITPDIISHIERGEEPYIREEPGSEERGPVRSS | 3.984 | 
29 | DOMAIN_26012 (protein, listed as Geotrypetes seraphini) QMQVKFEDIAISFSQEEWEYLNEEQKELYREVMEENYQTLLSLATDSPTFTPKIISYIKRGEEPYIRGEPDSEERESGKSS | 2.3532 | 
30 | DOMAIN_26044 (protein, listed as Geotrypetes seraphini) QMRLRFEDISVSFSQEEWAYLDEEQKELYREVMRDNYQTLISLGIGSPPVTPDIISCIEQGEEPYIRDEPGSEERKTGRSS | 2.8874 | 
31 | DOMAIN_26103 (protein, listed as Geotrypetes seraphini) EMRVMFEEITVSFSQEEWEYLDEGQKELYQEVMKENHETLIFLETNLQFVNPDMLSKIRRDSRMSRKRKATRSYAADDEAK | 2.5308 | 
32 | DOMAIN_26131 (protein, listed as Geotrypetes seraphini) AQMPVKFEDIAVSFSQEEWEYLNEEQKELYREVMEENYQTLISLGSPPVTPDIISHIERGEEPYIREEPGSEEREPGRSSC | 2.4087 | 
33 | DOMAIN_26134 (protein, listed as Geotrypetes seraphini) AQVPVTFEDIAIYFSQEEWEYLDEGQKALYREVMKENYETLLLLGCPGLKPVIISSIEQGEEPCVRKLQERAELYPTAGDE | 2.4433 | 
34 | DOMAIN_26177 (protein, listed as Geotrypetes seraphini) ASAQVTFEDIAVSFCHEEWRYLDEGQKELYKEVMKENYETLISLGFLCEKPSLISKIEQEEDPCVRDQQNSRERRRRLKNF | 3.4467 | 
35 | DOMAIN_26180 (protein, listed as Geotrypetes seraphini) QMPVKFEDIAVSFSQEEWEYLNEEQKELYREVMEENYQTLISLGIGSPSVTPDIISHIEGGEEPYIREEPGSEEREPGRSS | 3.4522 | 
36 | DOMAIN_26268 (protein, listed as Geotrypetes seraphini) VARMQTRVTFDDIAVSFSQEEWEYLDEGQKELYREVMEENLELLTSLGSLVAQPEQMEELYMMDHHDMGLRGTLLSLCTED | 2.1404 | 
37 | DOMAIN_26292 (protein, listed as Geotrypetes seraphini) QMQVTFEEVAISFSQEEWEYLDEEQKELYREVMKENYQTLISLATGSPTVTPKIIAHIERGEEPYIRGEPGSEERETGNSS | 2.4722 | 
